Reference: article PMC3087496 (Biochemistry, 2011)

Target: wild-type His6-Gαi1 (rat, UniProt P10824 1-354)
Assay: SEC

Sequence of wild-type His6-Gαi1 (P10824 whole entry): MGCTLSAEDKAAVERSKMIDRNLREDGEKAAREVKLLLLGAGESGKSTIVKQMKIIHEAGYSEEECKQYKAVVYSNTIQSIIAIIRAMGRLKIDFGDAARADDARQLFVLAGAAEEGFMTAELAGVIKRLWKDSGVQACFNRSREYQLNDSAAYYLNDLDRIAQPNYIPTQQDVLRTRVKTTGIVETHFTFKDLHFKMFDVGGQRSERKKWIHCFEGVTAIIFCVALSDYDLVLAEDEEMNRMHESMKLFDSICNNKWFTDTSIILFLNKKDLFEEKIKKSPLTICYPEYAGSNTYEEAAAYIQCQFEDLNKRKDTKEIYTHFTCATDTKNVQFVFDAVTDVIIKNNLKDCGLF

binding result: binds
B1: TxHis6-ΔRGS14 (encoding amino acids 299-544, including the RBD domains and GL domain) (domain or fragment, rat, UniProt O08773 299-544, looked up)
chain: GKYCCVYLPDGTASLALARPGLTIRDMLAGICEKRGLSLPDIKVYLVGKEQKALVLDQDCTVLADQEVRLENRITFQLELVGLERVVRISAKPTKRLQEALQPILAKHGLSLDQVVLHRPGEKQLVDLENLVSSVASQTLVLDTLPDAKTREASSIPPCRSQGCLPRTQTKDSHLPPLSSSLSVEDASGSTGKRQTCDIEGLVELLNRVQSSGAHDQRGLLRKEDLVLPEFLQLPSQRPGSQEAPP
